Measurements reported in the DeepSol protein solubility set.

Test: soluble on expression in E. coli; label from the status in PepcDB or PDB records

Row | Sequence | soluble on expression in E. coli
1 | MAHHHHHHMLLAIVRDLLQLFRPYAAALHPETTQVWFSVRDTPLSWLYPAGAVKDYVNECVREERAAHLSASSPSSPPLSSAAALLQSHLCTILSEPLELSFHIHSLTKGSSLARTVPLYINYDRLEEHIRMEVKQAHKAAYTVLYGNYAIYQREAESALQAAVGLALYRPFDAAAQEQLQQQRYRDPGSSGSGGAGVGNGGYSSSNSPGGGYSAPFAFTSPYLLVEYQQLLRGLLTPRPHVAYLIRIGFPFAYRGAAGRSESGYLQYDAHRVSAAPALALSVTTTEAAAAPTMEPEQLPLGLLLWRLFRAPVLRWKAQQLQQHPTDNTSPSTAAHASATVLSEVERTYQQLLRTLAPYYADPPRCATDGLEQQEPLMTSTPPEPPAWAAWERAMVQAFMRDYEERPEKCGLGFEFAEAAATSAASPNAVRRVRFMVQGIQPPLTTPGSFLEAHLSSSDRAIFVTVQV | not soluble
2 | MAHHHHHHMLLSVLHAPRQASIAAPLHKVQSCAYAAPDTVSAVLADCLGKDIAPVLRYLTAFATPPVSKPTSHQSHHLAASTRVLRHALVLLLYSFVTTWRGAPPRETPPPPGAIALTREERALALELCRCVAALNESDTGSESIATGERRGDTSAQAHSRDARAEATGSHVTSLEAVTGAQFALVRDALADMLAPDHHSDGSAASTPVRARDSVAGNGPLWRACEAWIAGAVGTAVGASVAPPSSPFAGITGVRMKEEEAVDLLERVNDQLNQIARGGAVNAASRQCGNSAAMP | not soluble
3 | MAHHHHHHMLNVVQATRMSKKQEVKAYGPNVKKGDLVYGVVHIFASFNDTFVHVTDMSGRETYVKVTGGMKVKADRDESSPYAAMMAAQDVVARCKECGINALHVKMRAVGGVRTKSPGPGRPGRPPRARPRRDEDWPHRGCHPDPDRLHPPQGFPPWSPPVRSLRPRVLRTAQQSELTLVTICWFPCVCDLLSFYCREEKKHRPQITEAR | not soluble
4 | MAHHHHHHMLPFSYRVLMRGVSAVSGALSVALQHRALAGTTRSFSSSRPVWLAPAAPTKQAPPAMGGDTDAEETHPDFQPRMVSSDLAQDEIAMIKKDIDDTIRDEDVVVFIKGVPEAPMCAFSKRMIDVMEALGVEYTSFDVLAHPVVRSYVKEVSEWPTIPQLFVKGEFAGGVDIILKMAESGDLQMLLDQKSIKHRDTKP | soluble
5 | MAHHHHHHMLQRSFVVRWVPRYIRQVPRVRQKKEQRDAVAMGRSKAPSKRRAECSAVSERDGGVARAAQAKRLEITEEGSTVLESPVSDVSRLLLRKAETLLDSWQKLNMTMTISGSRSDSLMGMKNSSSSQKRDAVAFMAQTEVFAVVKGMIHLSTPHEGSLNRCEEDNKHDSLRQNAFQEYRSTNIISGMVVIPDEATNDAVNYLAQIGRHRVGKVQDKVASLDDSFPISSAIFSLHEVVVFLELYNAMDCEDGELLLRLLEELRRIVFSTEKEIRTENHVLRECEEGVIPRLLLTLSSLGIVEENVLQRIVAINDGSILSRATIARYPESDLIRLLVAFNRFGLHHEPCFHVTAKTLRRNSLRNPLKSFCRNAVNCRVDAAPLGDGEKRSRIPSSMAGLTMNELLEALTAIALSLCREREVVKLLAATIVTAVEDEEYMRCSTKEKAKTREEDLGLLRTLQVHRAAKVCEQMDMPQPSLAHLLHRLSIRYGGLLADGGDVSLSPERVGFYDFITADLVKARCS | not soluble
6 | MAHHHHHHMLQRSLARLCAAAQRQGNKALAAEGRSFALVNREVTAIKEHIQSLVTNTNNEVLDHAGKYVLAAGGKLMRPALVVLMAHAMLPLDVSAHLLEEPIGSLDEVTPGTILPFLRLAEVTELIHTASLLHDDVIDNTDTRRGRPALHKVYDAKRAVLAGDYMLARASFYIATLQVPRIVILMTTALEELTSGELMQMDGCFDIPRYEQKSFCKTASLIANSLASTAVLAGPGNEALEQTAFDFGKHLGIAFQILDDCLDITGDEKMLGKPKLVDMKEGIATIPVLLVARRNAKVAEMVCRRFAEPGDAEFCLEAVEKEGAVAEAMHRADEHCRLGLESLHKLHHSPARDALESALSMVMNRKS | not soluble
7 | MAHHHHHHMLRFTVPALVVFQNAYAPRVLNRMTPDRMELTMLILKERKKKVRYLGSNFQGFNDRVHLFNAQGGVRRGTRYIIETHHNRIQFKHRSRNNSMVDVRAVKMAGSQYDSIGNYTRMTWDNSLCTTNLLSDPNFKRHFKNMPKEETIGVLEEWGVRYILLDEIRKP | not soluble
8 | MAHHHHHHMLRKTNLFLFAASRALMSGGSSHGPTPYQDKSYPVQPHNLNELQQPPDSWRKSPIMSKLMDQSLPVYDDVVTGVGRLYWQEPARVWHLFEADDTLMLEEHDREEWNDRPYVAVNHLYEPPIGSEERPIRVEGTGNPGDQQIVLCFGNCAPHVPQSNYYMMMKGYSKTKCPMCQQWFYVHNRPWLVMHPDWTDEPAADEGPAYTFAEIEAEFDRDFHEFGVYLNAE | not soluble
9 | MAHHHHHHMLRLCLALRSASVQRKPHLFRIDLTSKHTPGHLYLADRAVKSTAADPCFVCLDNAMTCQTVDSNAAVVLRSCMTKGRELFQYGRMRFQGMSAALVFRHNHLVFQGIGDASVQALEMSLQHKDVFALLGGISPHENIPEWARAVEKAIAEGDVEYVAEEMLLQLRCPTEGCTSVVAKISKFSAGLPEPPNYSHAM | not soluble
10 | MAHHHHHHMMRCSRGCRRQLRPYYNLPSKSDHGRKMTGFLTPYRHWMWKQNELWRNVHEAQFEHLRKVYKRQWLESFRVNADEYIYKYNITKAAQLAQWEYEMQAQEKKRLEAKQMTEGRQALKKKHLDLLREFHERQFFFWYERASERLQSMNLIQYIPQSRVQEHIERELDKYVAGKSEAYPLNFVGQMPLVEDREGNIVEVPEGLLTNHVSEHPESTVKPHQPHESTSVSVEEQLLRTMASAREESLEEWIDDSRALSETIDDISREEEQRDEDTRVARSMEETDNEREISRRMYIDRGKTGSKAIFRRPTLSETDGGSASIPVGGVAASPADTSAPMRRRKKGKLDKAHALQEQQDAMIARMSAKSLKDGESSISIVKRGEIATSRGRIRDKAAIPTQEVLMQKPELAAGSVPNARISFKDKVDQLYHRGKYKQKKEDDNNPNEDL | not soluble
11 | MAHHHHHHMMYSRLFHESLGIVIISPSRSSASPALVIADAFYSAMRLQVMLAMPFVQPRFASIFRLLLRAVPLLPPFMATFTFRRCTSDLSRRSAMRCFTARLQLLTFETLLCGSHGVLPPPARLAAACARAKEEFALQCSTSAPPPTKLTTAVVATHLLHNNLRDAAAVLASHPCQQQVLEEVRDYVRQHPGVFSVSTLTGMLEEARCVSPAAVATFLRAAVDEFLRGSSAASTVGDEATAWDAQRENLRSLVLRHIRFYPACVSFLLGSLCAVSRGCAGDREDVIEVMQIAMRERSMNPRDFGGVLDVVWKSREPRRVAMMWAWMQHTSACWDVRAASIAIMAFSELHQMDEAVACIQRLAEADGDPTIDAQVAFVRFLGVRTPSLLRYAAQLVLHWHPSGERLWRGEPQAVGMELVKICCACGERKWAVEMLEQMVATNASVPAELEAFMLRPGAAALGEHYSASVAASKTLQELFIDVPLRLPNLGEQPALVGLLLSLGMVTNRLPEVYDALEKASLTPANFQDALDCFVTGSVVKAASPVAVLACVREAGVRTGHKVPKEMESWLQLATEM | not soluble
12 | MAHHHHHHMNAKNDASESLLCGGEDISALVVDLGFSTTKIGHNQEDTPRVFLRSTCGEDVSPDGGSPRGDPSPKLKFPLNLHNPKEHLRIKPLFERNPVDNTTHMNSDVFERILRYGIEGVESKRVFHCSDEIPTPVKLGGLNLKIEEHPILLSEENIHNHRVRAEMTEILFETFNIPAVYFAKKAKLTAFSLGRSNALVIDIGGSSLNVTPVYEGYVLQRNSLQFGVGGDYFDRLIYGMLRKDQVRVVPYYEQGRGGSGGLGSASASCSPSCSFSGATHHPNVHSSYEEEAILDVIRYMKESICKVRVAHQSSANKKSETTSGGLKNGKEVEPTGQTHNGAKNVNAPKWQTGQTEEEEFFELPDGVKIKTDKYRYDIAEELFRAVPSAHNFNGLPEAIVNCIISSDVDIRKELLQAIIVTGGSSLFPGLVDRLYNSLREKECFSQSIKMKILNMTSSVECLYSSWLGGSILASLGTFQQLWVSRAEYDDAGHAIVSDRCF | not soluble
13 | MAHHHHHHMNEPDAALEGVVDLTSNNFDSSVGKDVAALVEFYAPWCGHCKNLVPEFAKLGRAAAGAKDKVLIAKVDATAQKDLATRFEVNGYPTILFFPAGSQKPEKYSEGREAKAFVSYLNNQIKGLNLFLPREHKYVMALDQSNFDKVALDEGKDAFVLFYAPWCGHCKRLHPSFESLAKVYQNEKDLIIANVDADDKSNSEVTKRYKVEGYPTLVFFPKGNKGNPVNYEEGRTLDDMIKFVNERTGKKRTSSGDFDKTVGVDETVTNLMKEMAQSSKNKEERERLLAQIQQAVSPKALGEGAMHYIRIATNVLENGHEYISKEHERVGRLLKGSLTGPKRDSLTIRFNILSAIKGE | soluble
14 | MAHHHHHHMNHVRHALDMDNEYTMVLDIGTIRRPAAQHRSESFMAASTTEWETKVERAERLSLLEGKKGCCYFSLYPEDVSAAFHEDAKSFPDVFSVEDAFVHCARLNLPMGEVAALLPAIPTETAEQVMHNLAEKCVIASPQSLAMTFLGEMSARLPVDLDIASFIIGGCNVGLGEAAVAIGSVAALPFRSITPLTYSSVPWNEATTWSREKYAGDIARHSDLLADTLVFIEWLKLRARGESTAEFLNTILVQEFKFVKIEGLMKYIREQLTNYVFLDRFDTLELLEDVSTSVQENSTIFLFLQAVALARRAAFIRDAGHLNEKDRYASMAFVRTSKRLMPHNYIPSSIKWDTGRILIPVILKNSTNILAGLFSLIHTPYFFASLLLLYPYVEYSKPVITDKGRVVYFGVSCNRQMKRFMVSIEEAAQILDFREKINLALSCMQALRTLSHPILKTKFLLILKKHDRLFDVERLHKNIRSQLLELVTELNVTEHQGSFETFATHCTAPKELLPMTDTPAMDVSVLRRFVDGTLWDSLPTPGSVVKPRAASFAGTPSTLPSAPLISTNDEDDDEEVEIIQDSYFMRHGPLIEDDDDD | not soluble
15 | MAHHHHHHMNIFKNIYNTEMMSNNNTVDVNMMDNNPAARLEELRTIMKKNKIDVYILINSDEHNSEIINEKDKKIVKITNYSGADGILIVTKDKPILYVNALYELQAMNELDQNLFTLRISRIDNRDEIFETISSLEFNTIAFDGKNTSVVFYEKLRKALLNAYPKKKIVEKIIYNNNFDDVNKKDDENVLNFLVLEKSLVEIKDYPVNNKTLYIHDRKYNGACAGEKIDKLKQSLMYDIKNVDNLLLSELDEIAYLLNLRGYDYQYSPLFYSYLLFQFDREEQDFSKIVFFTTVKNLPADVKNLLEINKVIVKEYEEIVPYLRDVVIPSIPKHNDDNPDFKKYDISLSPYINLMIYKLFDRKNVLLQNSPVVKMKAVKNDVEIDNMKQAHILDGLALLQFFHWCEQKRKTKELFNETEMSLRHKVDYFRSTKKNFIFPSFSTISASGPNAAVIHYECTDKTNATIKPAIYLLDSGGQYLHGTTDVTRTTHFGEPTAEEKRIYTLVLKGHLRLRKVIFASYTNSSALDFIARENLFNNFMDYNHGTGHGVGLTLNVHEGGCSIGPVGGAPLKKNMVLSNEPGYYMKDKFGVRIENMQYVISKEITDTTEYLSFDDLTMYPYEKKLLDFSLLTNQEIKELNEYHTTIRNTLLPLVKQSPQEYGESVEKYLIEITEPIAIHNN | soluble
16 | MAHHHHHHMNKSTVAGELRNIFSQGTNAYTVELYNAFYRDGTLSLVMEYMDWGNLEELIAICPTIPEPACAYIASQILHALQILHTKANHPTETDKKGRRQIHRDIKPANVMLSKNGVVKLTDFGIAASAETIGVNSFVGTATYMSPERIQGRNYSTPSDIWSVGVLTAQLLLGRFPFSAAEGGFMALLRQVTECCSLSLVDQCACSQKAEDFINHCICRNPDDRSTAIELLQHEWIVQNASNGKDVLTGLLGTVGEPAASSESDNS | not soluble
17 | MAHHHHHHMNPHQVNPSDQIAELVVESPHFSFNCAHFIAFKGFRETLHGHNYNVSLKLRGYIQQDGYVIDFSILKEKLKRVCKQLDHHFILPMYSDVLNIQMLEDNFKIICEDKSEYSFPKRDCVQIPIKHSSTEEIGLYILNKIIEELGLPFLKARSVNYMEVTVSESPTQKATVHRNI | not soluble
